Test results: the supplement of paper PMC10567573
± gives the standard deviation.

Assay: protein stability index of a GFP-peptide fusion (GPS, HEK-293T) (PSI 1-6); higher = more stable
[1] = treatment: DMSO, c terminus: a fixed tail appended
[2] = treatment: MLN4924 1 uM, 8 h, c terminus: a fixed tail appended
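Further: 24-mer peptide tiles fused after GFP, lentivirally expressed, FACS-sorted into six equal bins by GFP/DsRed ratio, decoded by Illumina sequencing, PSI is the read-weighted mean bin number.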

| Sequence | protein stability index [1] | protein stability index [2] | protein stability index (treatment: DMSO, c terminus: native) | protein stability index (treatment: MLN4924 1 uM, 8 h, c terminus: native) |
| --- | --- | --- | --- | --- |
| KQQIANLDKQAKLSRAYDGTTYLP [USP39] | 3.62 ± 0.19 | 3.87 ± 0.41 | – | – |
| NRKSILSRHLNSQVKKTTTRWCHI [PHTF1] | 2.57 ± 0.55 | 2.57 ± 0.39 | – | – |
| LFENSLCRLTHIPAYKVSGDKNEE [ZER1] | 4.05 ± 0.17 | 4.04 ± 0.12 | – | – |
| AAASPYIRTKLNYNPPKDDGSTYK [GAN] | 3.98 ± 0.11 | 3.79 ± 0.2 | – | – |
| QRLIVGNSALKDKEDQFGRTPLMY [INVS] | 3.05 ± 0.31 | 3.31 ± 0.35 | – | – |
| SGQRLGGYRTSAVASGLQFDVETR [WDFY2] | 3.82 ± 0.23 | 3.74 ± 0.27 | – | – |
| KRRRSVTPPEEQQEAEEPKARVLR [CDC25B] | 5.32 ± 0.24 | 5.67 ± 0.21 | – | – |
| APEYRGRTELLKDAIGEGKVTLRI [MOG] | 2.59 ± 0.2 | 2.72 ± 0.38 | – | – |
| MMCVAERTYKQRFLFAKLFSHITS [PHTF1] | 1.79 ± 0.71 | 2.24 ± 0.47 | – | – |
| FIIFGTMEEMQNKAVVFFVFYLWS [HACD3] | 2.8 ± 0.69 | 2.75 ± 0.13 | – | – |
| AHIRAERDILVEADGAWVVKMFYS [STK38L] | 2.24 ± 0.3 | 2.27 ± 0.2 | – | – |
| EREMAEIRDQMQQQLNDYEQLLDV [LMNB1] | 5.15 ± 0.17 | 5.09 ± 0.19 | – | – |
| RLNFQTPGMASHPPIPILELADHI [PTPRD] | 3.23 ± 0.2 | 3.08 ± 0.087 | – | – |
| EILDYIFSGQIRLNEDTIQDVVQA [GAN] | 2.67 ± 0.55 | 2.23 ± 0.34 | – | – |
| HPTYEEKLKLVALHKQVLMGPYNP [ACBD3] | 2.6 ± 0.34 | 2.69 ± 0.37 | – | – |
| LDMNFSLENREEPWVKELQDSKEM [ZNF449] | 5.31 ± 0.18 | 5.35 ± 0.32 | – | – |
| SSEHVTESVADLLALEEPVDYKQS [SLC6A17] | 5.17 ± 0.26 | 5.25 ± 0.34 | – | – |
| PDDVDYATNPHVKPPYSYATLICM [FOXJ1] | 2.22 ± 0.28 | 2.2 ± 0.28 | – | – |
| DGSYALNGEYTLMPSPTDVVLPGA [ADAMTS4] | 4.4 ± 0.2 | 3.87 ± 0.36 | – | – |
| PLTLQVQRPLVSVTVSDASWVSEL [AUP1] | 2.67 ± 0.15 | 2.67 ± 0.25 | – | – |
| SNNITLREDQLDTVLAVLEDSSRD [INTS4] | 5.25 ± 0.18 | 5.28 ± 0.16 | – | – |
| SFVVARYFPAGNVVNEGFFEENVL [GLIPR2] | 2.11 ± 0.55 | 2.33 ± 0.24 | – | – |

| Sequence | protein stability index [1] | protein stability index [2] | protein stability index (treatment: DMSO, c terminus: native) | protein stability index (treatment: MLN4924 1 uM, 8 h, c terminus: native) |
| --- | --- | --- | --- | --- |
| PPLPGKALKRQLPFRGDEGIFEES [SNX12] | 4.59 ± 0.21 | 4.74 ± 0.22 | – | – |
| GKETMCTVDGLHFNSTYNARVKAF [TRIM9] | 3.1 ± 0.37 | 3.08 ± 0.23 | – | – |
| AAYSSILSSLGENPQRQGLLKTPW [GCH1] | 2.54 ± 0.22 | 2.55 ± 0.29 | – | – |
| ILPKELQTWVRDHHPENGEEAVTV [ZNF24] | 3.92 ± 0.17 | 4.17 ± 0.25 | – | – |
| MNELQHDLDVVSDALAKVSRKPSI [TPH1] | 4.27 ± 0.22 | 4.42 ± 0.32 | – | – |
| AILEMKWKVRAEKEACQREKELPA [ZBED2] | 3.47 ± 0.29 | 3.56 ± 0.55 | – | – |
| ESQKANQCAVLIYTSGTTGIPKGV [ACSBG2] | 2.13 ± 0.26 | 2.52 ± 0.41 | – | – |
| EVPLISFTGSQPTAERITQLSAPH [ALDH8A1] | 3.86 ± 0.35 | 3.96 ± 0.43 | – | – |
| RDLEKQKEEVRAALEQREQDAVDQ [TRIM29] | 5.59 ± 0.08 | 5.66 ± 0.22 | – | – |
| FDVVVILTCSLSFLLCARSLLRGF [MCOLN1] | 3.38 ± 0.31 | 2.98 ± 0.54 | – | – |
| LLFKDLIKLFACYNDGVINLLEKF [SNAP91] | 3.04 ± 0.34 | 2.81 ± 0.87 | – | – |
| SHRPNQHNTVKLGAFQAQEKELVF [PRIM1] | 3.06 ± 0.62 | 3.25 ± 0.37 | – | – |
| VKSIVVKGYNIWTGGPDACLRCWD [TLE6] | 2.37 ± 0.3 | 2.24 ± 0.43 | – | – |
| DIFALALTVVCAAGAEPLPRNGDQ [WEE1] | 2.77 ± 0.22 | 2.54 ± 0.61 | – | – |
| ERFLELAPDFVGDILWEHLEQMIK [ETS2] | 2.36 ± 0.58 | 2.89 ± 0.51 | – | – |
| SASPIKDQPVMAVKTGEDGSNLDD [FANCE] | 5.66 ± 0.27 | 5.56 ± 0.2 | – | – |
| WYSRLQACQWGGNFLAFSVRRVS | – | – | 3.17 ± 0.58 | 2.15 ± 0.83 |
| GYTFDYAYDWVGRPIPTPVGSVHV [CSNK1G1] | 2.13 ± 0.44 | 2.14 ± 0.4 | – | – |
| IQVSLYCQEWYARRHCPLPQATFW [SOAT2] | 2.87 ± 0.38 | 3.07 ± 0.83 | – | – |
| LLQCLEDLDANLRKLNSRLFVIRG [CRY1] | 2.67 ± 0.25 | 2.68 ± 0.29 | – | – |
| YVDVVFANRPDPNTPMEETVRAMT [KCNAB2] | 2.66 ± 0.34 | 3.09 ± 0.7 | – | – |
| CAGKAKRSGGHAPRVRELLLDALS [ESR2] | 2.38 ± 0.29 | 2.52 ± 0.25 | – | – |

| Sequence | protein stability index [1] | protein stability index [2] | protein stability index (treatment: DMSO, c terminus: native) | protein stability index (treatment: MLN4924 1 uM, 8 h, c terminus: native) |
| --- | --- | --- | --- | --- |
| RLVLCMELANGKPQTRSGPECGLA [ADAMTSL2] | – | 2.22 ± 0.53 | – | – |
| EEEEEEEEAEAGEEAVPEEEGPTV [CHGA] | 5.34 ± 0.25 | 5.4 ± 0.25 | – | – |
| ADPLDTPPDSKEGIVVESNHDSHM [PDZK1] | 5.53 ± 0.1 | 5.36 ± 0.33 | – | – |
| ILLSWTPPRSDTIANYELVYKDGE [PTPRD] | 2.03 ± 0.41 | 2.23 ± 0.42 | – | – |
| TTDPDLILEVLRSSPMVQVDEKGE [LARP4] | 4.61 ± 0.32 | 4.73 ± 0.24 | – | – |
| ERCLHMFLQEEAIDRNYVPGKSLA [SNX12] | 2.97 ± 0.31 | 3.05 ± 0.26 | – | – |
| ILSFTVIMVGFILYCSTPTRTAEP [SLC35F2] | 3.27 ± 0.65 | 2.77 ± 0.53 | – | – |
| ILDDGTISAHKPLLISSCDWMAAM [RHOBTB2] | 2.29 ± 0.24 | 2.12 ± 0.19 | – | – |
| DREGYTSFWNDCISSGLRGCMLIE [GOLPH3] | 2.08 ± 0.28 | 2.31 ± 0.19 | – | – |
| LKPSWFDFGFAILGFAYAKEDKIM [MIA2] | 3.06 ± 0.61 | 2.34 ± 0.53 | – | – |
| WPPSFLSEFRALQFSLMLCAFVGA [SPNS1] | 3.23 ± 0.53 | 2.85 ± 0.64 | – | – |
| VQRKSDFDQTVFQEVFEPPHYELC [NETO1] | 3.44 ± 0.23 | 3.62 ± 0.3 | – | – |
| PPLSHIMAQPLCIRALLNLHTDVG [NEK8] | 2.21 ± 0.41 | 2.03 ± 0.13 | – | – |
| ENYHKLRRSSSKCIHDHHCGSQLS [NETO1] | 3.1 ± 0.27 | 3.26 ± 0.4 | – | – |
| LFGEKLSGTDAEETILNAFKMLDP [MYL5] | 3.56 ± 0.28 | 3.31 ± 0.35 | – | – |
| GILRARRGEGIQAPSFSSYLYFLF [SOAT2] | 2.29 ± 0.31 | 2.11 ± 0.28 | – | – |
| PRNPTVRWGYVAMKFAQVFGCFFY [SOAT1] | 2.33 ± 0.2 | 2.18 ± 0.2 | – | – |
| SFNILVEDRVKLFGIEIEVTDIND [PCDHGA10] | 2.17 ± 0.4 | 2.55 ± 0.59 | – | – |
| WRWTGFNFGFDLLVTYTNRYIIFK [GMCL1] | 2.63 ± 0.58 | 3.02 ± 0.45 | – | – |
| SATSKLIHPDEDISLEERRAQLPK [ZNF207] | 4.9 ± 0.28 | 5.08 ± 0.2 | – | – |
| DEELHLLIISCRKLFYFKIWAFLD [FBXO39] | 2.75 ± 0.52 | 2.47 ± 0.69 | – | – |
